B1: CAMK2D (parent)
chain: IVRLHDSISEEGFHYLVFDLVTGG

Our source for the protein stability index values is the supplement of paper PMC10567573.
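Note: lentivirally expressed fusions sorted by FACS into six bins by GFP to DsRed ratio, PSI derived from sequencing read proportions per bin multiplied by bin number.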

In this data set the parent is B1. Nature of the data set: protein stability index of a GFP-peptide fusion (GPS, HEK-293T) (PSI 1-6); higher = more stable. Conditions: c terminus: a fixed tail appended.
On to IVRLHDSISEEGWHYLVFDLVTGG [F13W], for which the protein stability index stood at 2.18.
With IVRLHDSISEEGEHYLVFDLVTGG [F13E] the figure was 2.6.
The same measure for IVRLHDSISEEGNHYLVFDLVTGG [F13N]: 2.2; for IVRLHDSISEEGAHYLVFDLVTGG [F13A]: 1.76.
For IVRLHDSISEEGQHYLVFDLVTGG [F13Q], the protein stability index came to 1.37.
The same measure for IVRLHDSISEEGDHYLVFDLVTGG [F13D]: 1.91; for IVRLHDSISEEGKHYLVFDLVTGG [F13K]: 1.43.
The same measure for IVRLHDSISEEGYHYLVFDLVTGG [F13Y]: 3.07; for IVRLHDSISEEGHHYLVFDLVTGG [F13H]: 1.62.
As for IVRLHDSISEEGMHYLVFDLVTGG [F13M], the protein stability index stood at 2.71.
In the case of IVRLHDSISEEGLHYLVFDLVTGG [F13L], the protein stability index turned out to be 2.02.
The same measure for IVRLHDSISEEGPHYLVFDLVTGG [F13P]: 1.08.
The same measure for IVRLHDSISEEGTHYLVFDLVTGG [F13T]: 3.34; for IVRLHDSISEEGSHYLVFDLVTGG [F13S]: 3.27; for IVRLHDSISEEGFHYLVDDLVTGG [F18D]: 2.67.
The same measure for IVRLHDSISEEGFHYLVCDLVTGG [F18C]: 1.32; for IVRLHDSISEEGFHYLVADLVTGG [F18A]: 2.33; for IVRLHDSISEDGFHYLVFDLVTGG [E11D]: 3.32.
Consider IVRLHDSISELGFHYLVFDLVTGG [E11L], for which the protein stability index came out at 3.7.
The same measure for IVRLHDSISENGFHYLVFDLVTGG [E11N]: 3.39; for IVRLHDSISEAGFHYLVFDLVTGG [E11A]: 2.79.
With IVRLHDSISETGFHYLVFDLVTGG [E11T] the figure was 2.08; with IVRLHDSISEIGFHYLVFDLVTGG [E11I], 1.56.
As to IVRLHDSISEFGFHYLVFDLVTGG [E11F], the protein stability index amounted to 3.42.
With IVRLHDSISEPGFHYLVFDLVTGG [E11P] the figure was 2.13.
The same measure for IVRLHDSISEQGFHYLVFDLVTGG [E11Q]: 2.06; for IVRLHDSISEYGFHYLVFDLVTGG [E11Y]: 3.26.
The same measure for IVRLHDSISERGFHYLVFDLVTGG [E11R]: 3.9; for IVRLHDSISEEGFHYLGFDLVTGG [V17G]: 3.58.
Turning to IVRLHDSISEEGFHYLNFDLVTGG [V17N], the protein stability index stood at 1.85.
The same measure for IVRLHDSISEEGFHYLIFDLVTGG [V17I]: 2.58; for IVRLHDSISEEGFHYLEFDLVTGG [V17E]: 1.69.
With IVRLHDSISEEGFHYLHFDLVTGG [V17H] the figure was 2.93.
With IVRLHDSISEEGFHYLTFDLVTGG [V17T] the figure was 1.75.
As for IVRLHDSISEEGFHYLPFDLVTGG [V17P], the protein stability index stood at 2.04.
With IVRLHDSISEEGFHYLLFDLVTGG [V17L] the figure was 1.
The same measure for IVRLHDSISEEGFHYLYFDLVTGG [V17Y]: 3.27.
As to IVRLHDSISEEGFHYLWFDLVTGG [V17W], the protein stability index stood at 2.39.
With IVRLHDSISEEGFHYLKFDLVTGG [V17K] the figure was 2.56.
The same measure for IVRLHDSISEEGFHYLSFDLVTGG [V17S]: 3.19.
With IVRLHDSISEEGFHYLDFDLVTGG [V17D] the figure was 1.46; with IVRLHDSISEEGFHYLRFDLVTGG [V17R], 2.13.
Take IVRLHDSISEEGFHYLAFDLVTGG [V17A]: the protein stability index was found to be 2.78.
The same measure for IVRLHDSISEEGFHYLFFDLVTGG [V17F]: 2.39.
The same measure for IVRLHDSISTEGFHYLVFDLVTGG [E10T]: 3.29; for IVRLHDSISSEGFHYLVFDLVTGG [E10S]: 2.15; for IVRLHDSISREGFHYLVFDLVTGG [E10R]: 2.65.
As for IVRLHDSISYEGFHYLVFDLVTGG [E10Y], the protein stability index is 2.83.
With IVRLHDSISEEGFHYHVFDLVTGG [L16H] the figure was 1.39; with IVRLHDSISEEGFHYRVFDLVTGG [L16R], 2.51; with IVRLHDSISEEGFHYPVFDLVTGG [L16P], 1.74.
As to IVRLHDSISEEGFHYEVFDLVTGG [L16E], the protein stability index worked out at 1.57.
The same measure for IVRLHDSISEEGFHYQVFDLVTGG [L16Q]: 2.04; for IVRLHDSISEEGFHYYVFDLVTGG [L16Y]: 2.98.
The same measure for IVRLHDSISEEGFHYDVFDLVTGG [L16D]: 1.63; for IVRLHDSISEEGFHYFVFDLVTGG [L16F]: 2.76; for IVRLHDSISEEGFHYGVFDLVTGG [L16G]: 2.17.
With IVRLHDSISEEGFHYNVFDLVTGG [L16N] the figure was 1.5; with IVRLHDSISEEGFHYCVFDLVTGG [L16C], 2.49.
For IVRLHDSISEEGFHYIVFDLVTGG [L16I], the protein stability index was 2.66.
With IVRLHDSISEEGFHYTVFDLVTGG [L16T], the protein stability index stood at 1.21.
For the variant IVRLHDSISEEGFHYAVFDLVTGG [L16A], the protein stability index came out at 3.09.
For the variant IVRLHDSISEEGFHYSVFDLVTGG [L16S], the protein stability index was 1.55.
The same measure for IVRLHDSISEESFHYLVFDLVTGG [G12S]: 3.25; for IVRLHDSISEEEFHYLVFDLVTGG [G12E]: 2.48.
With IVRLHDSISEEVFHYLVFDLVTGG [G12V] the figure was 3.05; with IVRLHDSISEEYFHYLVFDLVTGG [G12Y], 3.96.
As to IVRLHDSISEEPFHYLVFDLVTGG [G12P], the protein stability index worked out at 2.31.
The same measure for IVRLHDSISEEWFHYLVFDLVTGG [G12W]: 3.89; for IVRLHDSISEENFHYLVFDLVTGG [G12N]: 2.04; for IVRLHDSISEETFHYLVFDLVTGG [G12T]: 3.32.
The same measure for IVRLHDSISEEIFHYLVFDLVTGG [G12I]: 2.16.
With IVRLHDSISEEAFHYLVFDLVTGG [G12A] the figure was 2.25; with IVRLHDSISEEGFHHLVFDLVTGG [Y15H], 1.2.
For IVRLHDSISEEGFHSLVFDLVTGG [Y15S], the protein stability index was 1.06.
With IVRLHDSISEEGFHFLVFDLVTGG [Y15F] the figure was 2.63.
On to IVRLHDSISEEGFHRLVFDLVTGG [Y15R], for which the protein stability index is 1.21.
As to IVRLHDSISEEGFHKLVFDLVTGG [Y15K], the protein stability index stood at 2.76.
IVRLHDSISEEGFHALVFDLVTGG [Y15A]: the protein stability index turned out to be 2.98.
With IVRLHDSISEEGFHILVFDLVTGG [Y15I] the figure was 2.54.
With IVRLHDSISEEGFHWLVFDLVTGG [Y15W], the protein stability index was found to be 2.7.
The same measure for IVRLHDSISEEGFHPLVFDLVTGG [Y15P]: 1.75; for IVRLHDSISEEGFHDLVFDLVTGG [Y15D]: 1.89.
The same measure for IVRLHDSISEEGFHNLVFDLVTGG [Y15N]: 2.46; for IVRLHDSISEEGFHELVFDLVTGG [Y15E]: 1.7; for IVRLHDSISEEGFHQLVFDLVTGG [Y15Q]: 1.58.
With IVRLHDSISEEGFEYLVFDLVTGG [H14E] the figure was 1.83; with IVRLHDSISEEGFCYLVFDLVTGG [H14C], 2.29; with IVRLHDSISEEGFDYLVFDLVTGG [H14D], 1.85.
As to IVRLHDSISEEGFYYLVFDLVTGG [H14Y], the protein stability index was 2.71.
The same measure for IVRLHDSISEEGFMYLVFDLVTGG [H14M]: 2.25; for IVRLHDSISEEGFAYLVFDLVTGG [H14A]: 2.32.
The same measure for IVRLHDSISEEGFKYLVFDLVTGG [H14K]: 2.2; for IVRLHDSISEEGFPYLVFDLVTGG [H14P]: 2.79.
